Laboratory results: patent US20140154265

Assays:
[1] = molecular target: FLAG-tagged ubiquitin, P0CG48
[2] = molecular target: ubiquitin-aminomethylcoumarin, P0CG48
[3] = molecular target: T1, RLRGG-AMC, C-terminal peptide motif of Ub and ISG15 coupled to aminomethylcoumarin
T1 chain: RLRGG

Sequence of ubiquitin-aminomethylcoumarin, P0CG48 (P0CG48 whole entry, looked up): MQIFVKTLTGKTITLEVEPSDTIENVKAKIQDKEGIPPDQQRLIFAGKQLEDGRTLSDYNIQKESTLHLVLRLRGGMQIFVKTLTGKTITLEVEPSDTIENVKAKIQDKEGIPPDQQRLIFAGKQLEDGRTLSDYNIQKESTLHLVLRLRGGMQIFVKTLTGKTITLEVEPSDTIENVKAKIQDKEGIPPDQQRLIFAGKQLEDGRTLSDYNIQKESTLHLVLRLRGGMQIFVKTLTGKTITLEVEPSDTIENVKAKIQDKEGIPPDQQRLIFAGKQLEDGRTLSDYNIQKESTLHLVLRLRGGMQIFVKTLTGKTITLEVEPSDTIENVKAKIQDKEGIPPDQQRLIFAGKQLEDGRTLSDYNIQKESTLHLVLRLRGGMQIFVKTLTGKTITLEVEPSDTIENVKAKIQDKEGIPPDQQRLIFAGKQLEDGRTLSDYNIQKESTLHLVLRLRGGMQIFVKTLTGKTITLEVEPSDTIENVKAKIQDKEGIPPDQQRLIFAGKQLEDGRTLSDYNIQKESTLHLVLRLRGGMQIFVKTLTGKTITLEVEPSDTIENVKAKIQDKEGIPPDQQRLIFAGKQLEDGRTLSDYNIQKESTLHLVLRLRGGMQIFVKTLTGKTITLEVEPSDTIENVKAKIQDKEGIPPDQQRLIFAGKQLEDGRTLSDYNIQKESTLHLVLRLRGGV
Sequence of FLAG-tagged ubiquitin, P0CG48 (P0CG48 whole entry, looked up): as above

B1: EAV nsp2-3 polyprotein (residues 261-1064 of EAV pp1a) with N-terminal HA tag, PLP2 mutant I353R (protein)
chain: GYNPPGDGACGYRCLAFMNGATVVSAGCSSDLWCDDELAYRVFQLSPTFTVTIPGGRVCPNAKYAMICDKQHWRVKRAKGVGLCLDESCFRGRCNCQRMSGPPPAPVSAAVLDHILEAATFGNVRVVTPEGQPRPVPAPRVRPSANSSGDVKDPAPVPPVPKPRTKLATPNPTQAPIPAPRTRLQGASTQEPLASAGVASDSAPKWRVAKTVYSSAERFRTELVQRARSVGDVLVQALPLKTPAVQRYTMTLKMMRSRFSWHCDVWYPLAVIACLLPIWPSLALLLSFAIGLIPSVGNNVVLTALLVSSANYVASMDHQCEGAACLALLEEEHYYRAVRWRPITGALSLVLNLLGQVGYVARSTFDAAYVPCTVFDLCSFAILYLCRNRCWRCFGRCVRVGPATHVLGSTGQRVSKLALIDLCDHFSKPTIDVVGMATGWSGCYTGTAAMERQCASTVDPHSFDQKKAGATVYLTPPVNSGSALQCLNVMWKRPIGSTVLGEQTGAVVTAVKSISFSPPCCVSTTLPTRPGVTVVDHALYNRLTASGVDPALLRVGQGDFLKLNPGFRLIGGWIYGICYFVLVVVSTFTCLPIKCGIGTRDPFCRRVFSVPVTKTQEHCHAGMCASAEGISLDSLGLTQLQSYWIAAVTSGLVILLVCHRLAISALDLLTLASPLVLLVFPWASVGLLLACSLAGAAVKIQLLATLFVNLFFPQATLVTMGYWACVAALAVYSLMGLRVKVNVPMCVTPAHFLLLARSAGQSREQMLRVSAAAPTNSLLGVARDCYVTGTTRLYIPKEGGMVFE
- density of the alpha-flag lane (amount of remaining ubiquitin conjugates) [1]: shows a density of the alpha-flag lane that is about twice as high as that of the T312A lane

B2: EAV PLP2 domain (residues 261-392 of EAV pp1a) with C-terminal HIS6 purification tag, wild-type (protein)
chain: GYNPPGDGACGYRCLAFMNGATVVSAGCSSDLWCDDELAYRVFQLSPTFTVTIPGGRVCPNAKYAMICDKQHWRVKRAKGVGLCLDESCFRGICNCQRMSGPPPAPVSAAVLDHILEAATFGNVRVVTPEGQHHHHHH
- kcat/KM [2]: 21000 ± 2000 M⁻¹ s⁻¹
- kcat/KM [3]: 48 ± 8 M⁻¹ s⁻¹

B3: EAV PLP2 domain I353R mutant (Ile353Arg), recombinant enzyme (protein)
chain: GYNPPGDGACGYRCLAFMNGATVVSAGCSSDLWCDDELAYRVFQLSPTFTVTIPGGRVCPNAKYAMICDKQHWRVKRAKGVGLCLDESCFRGRCNCQRMSGPPPAPVSAAVLDHILEAATFGNVRVVTPEGQHHHHHH
- kcat/KM [2]: 1100 ± 100 M⁻¹ s⁻¹
- kcat/KM value for Ub-AMC against that of the wild-type [2]: the kcat/KM value for Ub-AMC of the mutant I353R is 20 times lower than that of the wild-type virus
- kcat/KM [3]: 71 ± 8 M⁻¹ s⁻¹

B4: EAV nsp2-3 polyprotein (residues 261-1064 of EAV pp1a) with N-terminal HA tag, PLP2 mutant T312A (protein)
chain: GYNPPGDGACGYRCLAFMNGATVVSAGCSSDLWCDDELAYRVFQLSPTFTVAIPGGRVCPNAKYAMICDKQHWRVKRAKGVGLCLDESCFRGICNCQRMSGPPPAPVSAAVLDHILEAATFGNVRVVTPEGQPRPVPAPRVRPSANSSGDVKDPAPVPPVPKPRTKLATPNPTQAPIPAPRTRLQGASTQEPLASAGVASDSAPKWRVAKTVYSSAERFRTELVQRARSVGDVLVQALPLKTPAVQRYTMTLKMMRSRFSWHCDVWYPLAVIACLLPIWPSLALLLSFAIGLIPSVGNNVVLTALLVSSANYVASMDHQCEGAACLALLEEEHYYRAVRWRPITGALSLVLNLLGQVGYVARSTFDAAYVPCTVFDLCSFAILYLCRNRCWRCFGRCVRVGPATHVLGSTGQRVSKLALIDLCDHFSKPTIDVVGMATGWSGCYTGTAAMERQCASTVDPHSFDQKKAGATVYLTPPVNSGSALQCLNVMWKRPIGSTVLGEQTGAVVTAVKSISFSPPCCVSTTLPTRPGVTVVDHALYNRLTASGVDPALLRVGQGDFLKLNPGFRLIGGWIYGICYFVLVVVSTFTCLPIKCGIGTRDPFCRRVFSVPVTKTQEHCHAGMCASAEGISLDSLGLTQLQSYWIAAVTSGLVILLVCHRLAISALDLLTLASPLVLLVFPWASVGLLLACSLAGAAVKIQLLATLFVNLFFPQATLVTMGYWACVAALAVYSLMGLRVKVNVPMCVTPAHFLLLARSAGQSREQMLRVSAAAPTNSLLGVARDCYVTGTTRLYIPKEGGMVFE
- density of the alpha-flag lane (amount of remaining ubiquitin conjugates) [1]: a mutant such as T312A already shows a level of DUB-activity that leads to a significantly denser alpha-flag lane, which represents the amount of remaining ubiquitin conjugates, than that of the wild-type virus
